In article PMC6104826:

Biological target: HA-tagged cMyBP-C construct C6–C8 (human)
Experiment: co-IP; HEK293 cells co-expressing cMyc-tagged BT (RyR) constructs with HA-tagged cMyBP-C constructs; HA–cMyBP-C immunoprecipitated with Ab^HA from solubilised cell lysates, co-precipitated BT detected by western blotting with Ab^cMyc; non-immune rabbit IgG as negative control; densitometry

Sequence of HA-tagged cMyBP-C construct C6–C8 (human) (Q14896 whole entry): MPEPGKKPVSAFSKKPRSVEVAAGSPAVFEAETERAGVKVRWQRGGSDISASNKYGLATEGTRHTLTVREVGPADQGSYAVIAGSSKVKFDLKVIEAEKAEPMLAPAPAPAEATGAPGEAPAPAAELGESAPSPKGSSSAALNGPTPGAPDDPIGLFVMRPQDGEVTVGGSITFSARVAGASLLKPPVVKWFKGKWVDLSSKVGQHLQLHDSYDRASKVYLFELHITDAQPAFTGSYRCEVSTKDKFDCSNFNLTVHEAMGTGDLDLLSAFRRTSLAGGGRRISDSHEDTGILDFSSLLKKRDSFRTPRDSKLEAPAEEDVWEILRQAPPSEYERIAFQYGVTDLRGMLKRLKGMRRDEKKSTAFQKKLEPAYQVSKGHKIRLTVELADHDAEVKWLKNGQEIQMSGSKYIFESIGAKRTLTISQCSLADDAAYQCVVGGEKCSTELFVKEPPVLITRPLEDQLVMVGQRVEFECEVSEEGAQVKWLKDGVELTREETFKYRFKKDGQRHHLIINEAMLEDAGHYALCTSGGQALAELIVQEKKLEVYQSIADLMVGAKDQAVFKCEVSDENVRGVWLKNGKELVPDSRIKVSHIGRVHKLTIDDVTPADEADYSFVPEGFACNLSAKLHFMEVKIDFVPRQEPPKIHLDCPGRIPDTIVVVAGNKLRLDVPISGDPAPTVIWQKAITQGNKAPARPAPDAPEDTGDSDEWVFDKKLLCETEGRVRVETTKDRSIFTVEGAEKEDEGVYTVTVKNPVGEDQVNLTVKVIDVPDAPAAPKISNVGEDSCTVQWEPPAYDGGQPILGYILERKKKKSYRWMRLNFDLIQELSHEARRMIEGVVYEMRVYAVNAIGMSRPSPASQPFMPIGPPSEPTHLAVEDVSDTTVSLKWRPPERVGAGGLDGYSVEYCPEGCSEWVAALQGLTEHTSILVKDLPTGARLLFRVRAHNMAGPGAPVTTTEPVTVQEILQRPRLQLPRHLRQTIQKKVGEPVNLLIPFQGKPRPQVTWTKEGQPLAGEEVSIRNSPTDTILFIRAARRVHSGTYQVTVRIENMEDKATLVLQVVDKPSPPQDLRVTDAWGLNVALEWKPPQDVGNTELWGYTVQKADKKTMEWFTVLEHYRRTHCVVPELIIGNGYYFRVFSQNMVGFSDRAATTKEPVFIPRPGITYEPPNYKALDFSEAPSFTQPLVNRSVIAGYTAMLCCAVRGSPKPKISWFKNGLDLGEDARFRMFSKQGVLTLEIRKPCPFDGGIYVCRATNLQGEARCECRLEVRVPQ

BT4L (cMyc-tagged RyR2 residues 1–906) (from UniProt Q92736 1-906) (domain or fragment)
fold signal against C8–C10: 3 fold
